The record followed here is publication PMC5004176, “The antifungal plant defensin AtPDF2.3 from Arabidopsis thaliana blocks potassium channels” (Scientific Reports, 2016).

Read-outs that look alike come from different tables or passages of the source. Ends that are not written are not given here.

In one assay the test system is Kv1.2 channels. Briefly: Two-electrode voltage-clamp on Kv1.2 expressed in X. laevis oocytes. The conditions noted are these: for IC50: read-out: IC50 for Kv1.2, two-electrode voltage-clamp, X. laevis oocytes, concentration-response curve fitted with Hill equation, mean ± standard error, n ≥ 3.
For a further assay, the system named is Kv1.6 channels. Briefly: Two-electrode voltage-clamp on Kv1.6 expressed in X. laevis oocytes. Particulars: for IC50: read-out: IC50 for Kv1.6, two-electrode voltage-clamp, X. laevis oocytes, concentration-response curve fitted with Hill equation, mean ± standard error, n ≥ 3.
Assay [1] addresses voltage-gated potassium channel rKv1.6 (rat (from the prefix in rKv1.6)) (UniProt P17659).
For assay [2], the target named is voltage-gated potassium channel rKv1.2 (rat (from the prefix in rKv1.2)) (UniProt P63142).
Chain of voltage-gated potassium channel rKv1.2 (rat (from the prefix in rKv1.2)) (P63142 whole entry): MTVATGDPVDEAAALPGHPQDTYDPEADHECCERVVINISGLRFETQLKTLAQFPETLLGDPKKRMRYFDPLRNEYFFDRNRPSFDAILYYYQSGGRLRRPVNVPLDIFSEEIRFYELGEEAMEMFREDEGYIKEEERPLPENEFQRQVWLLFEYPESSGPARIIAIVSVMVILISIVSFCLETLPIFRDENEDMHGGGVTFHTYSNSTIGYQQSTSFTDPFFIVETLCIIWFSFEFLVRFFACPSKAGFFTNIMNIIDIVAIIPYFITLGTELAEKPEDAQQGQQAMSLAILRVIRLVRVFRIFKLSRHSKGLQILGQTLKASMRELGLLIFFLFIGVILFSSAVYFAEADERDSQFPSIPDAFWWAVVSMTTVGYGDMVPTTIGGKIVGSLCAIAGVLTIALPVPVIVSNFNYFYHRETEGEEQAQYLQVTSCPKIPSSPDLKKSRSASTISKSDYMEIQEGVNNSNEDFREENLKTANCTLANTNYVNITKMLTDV
Assay [3] deals with voltage-gated potassium channel rKv1.6 (rat (from the prefix in rKv1.6)) (UniProt P17659). This is another data set of the same source.
Chain of voltage-gated potassium channel rKv1.6 (rat (from the prefix in rKv1.6)) (P17659 whole entry): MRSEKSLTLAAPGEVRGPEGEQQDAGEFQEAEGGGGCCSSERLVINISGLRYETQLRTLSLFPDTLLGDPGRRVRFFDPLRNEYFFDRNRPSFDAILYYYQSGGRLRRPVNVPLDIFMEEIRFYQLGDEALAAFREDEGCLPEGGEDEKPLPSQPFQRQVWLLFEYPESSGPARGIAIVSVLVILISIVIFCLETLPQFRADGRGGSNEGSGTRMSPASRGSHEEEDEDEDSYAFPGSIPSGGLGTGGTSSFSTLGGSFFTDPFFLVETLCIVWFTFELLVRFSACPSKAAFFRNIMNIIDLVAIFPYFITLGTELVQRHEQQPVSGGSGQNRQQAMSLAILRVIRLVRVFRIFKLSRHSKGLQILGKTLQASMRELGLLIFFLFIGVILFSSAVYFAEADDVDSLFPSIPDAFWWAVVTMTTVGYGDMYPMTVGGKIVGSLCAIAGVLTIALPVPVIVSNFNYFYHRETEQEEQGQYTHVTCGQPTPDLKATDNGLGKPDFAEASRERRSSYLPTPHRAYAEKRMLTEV
Assay [4] addresses voltage-gated potassium channel rKv1.2 (rat (from the prefix in rKv1.2)) (UniProt P63142). This is another data set of the same source.

Method for Kv1.2 channels: (§1) For the expression of the voltage-gated potassium channels (rKv1.1, rKv1.2, hKv1.3, rKv1.4, rKv1.5, rKv1.6, Shaker IR, hKv3.1, rKv4.3, and hERG) in Xenopus laevis oocytes, the linearized plasmids were transcribed using the T7 or SP6 mMESSAGE-mMACHINE transcription kit (Ambion). The harvesting of stage V–VI oocytes from an anaesthetized female X. laevis frog was previously described[59]. Oocytes were injected with 50 nL of cRNA at a concentration of 1 ng/nL using a micro-injector (Drummond Scientific, USA). The oocytes were incubated in a solution containing (in mM): NaCl, 96; KCl, 2; CaCl2, 1.8; MgCl2, 2 and HEPES, 5 (pH 7.4), supplemented with 50 mg/L gentamycin sulfate.
(§2) Two-electrode voltage-clamp recordings were performed at room temperature (18–22 °C) using a Geneclamp 500 amplifier (Molecular Devices, USA) controlled by a pClamp data acquisition system (Axon Instruments, USA). Whole cell currents from oocytes were recorded 1–4 days after injection. Bath solution composition was ND96 (in mM): NaCl, 96; KCl, 2; CaCl2, 1.8; MgCl2, 2 and HEPES, 5 (pH 7.4) or HK (in mM): NaCl, 2; KCl, 96; CaCl2, 1.8; MgCl2, 2 and HEPES, 5 (pH 7.4). Voltage and current electrodes were filled with 3 M KCl. Resistances of both electrodes were kept between 0.7 and 1.5 MΩ. The elicited currents were filtered at 0.5 kHz and sampled at 2 kHz (for potassium currents) or filtered at 2 kHz and sampled at 20 kHz (for sodium currents) using a four-pole low-pass Bessel filter. Leak subtraction was performed using a -P/4 protocol. Kv1.1–Kv1.6 and Shaker currents were evoked by 250 ms depolarizations to 0 mV followed by a 250 ms pulse to −50 mV, from a holding potential of −90 mV. Current traces of hERG channels were elicited by applying a +40 mV prepulse for 2 s followed by a step to −120 mV for 2 s. […] In order to investigate the current–voltage relationship, current traces were evoked by 10 mV depolarization steps from a holding potential of −90 mV. To assess the concentration dependency of the toxin induced inhibitory effects, a concentration–response curve was constructed, in which the percentage of current inhibition was plotted as a function of toxin concentration. Data were fitted with the Hill equation: y = 100/[1 + (IC50/[toxin])^h], were y is the amplitude of the toxin-induced effect, IC50 is the toxin concentration at half-maximal efficacy, [toxin] is the toxin concentration, and h is the Hill coefficient. GV curves were calculated from IV relationships as follows: gK = IK/(Em−EK) with EK = (RT/zF)ln[K #0]o/[K #0]i. In these equations gK represents the conductance, IK the potassium current, Em the membrane potential, EK the reversal potential, R the gas constant (8.31 J/K mol), T the temperature, z the charge of the ion (for K+ ions: z = 1), F the Faraday’s constant (96.500 C/mol), [K #0]o and [K #0]i respectively are the extracellular and intracellular K+ ion concentrations. The values of IK or gK were plotted as function of voltage and fitted using the Boltzmann equation: gK/gmax = [1 + exp(Vg−V)/k]−1, were gmax represents maximal gK, Vg is the voltage corresponding to half-maximal conductance, and k is the slope factor. Comparison of two sample means was made using a paired Student’s t test (P < 0.05). All data represent at least three independent experiments (n ≥ 3) and are presented as mean ± standard error.
Method for Kv1.6 channels: as §1, §2

Consider “rAtPDF2.3[G36N]: rAtPDF2.3 variant with both Lysine33 and Asparagine36 (KCXN toxin signature) (RTCESKSHRFKGPCVSTHNCANVCHNEGFGGGKCRNFRRRCYCTRHC; ends and bridges not checked; cysteine pairing not given here)”, for which, in the assay on Kv1.2 channels (ratio of IC50 values), the “fold decrease of Kv1.2 IC50 as compared to rAtPDF2.3” value was found to be 2.1 fold. Moreover, the results for the IC50 with Kv1.2 channels and in the assay with Kv1.6 channels were 611 ± 91 nM and 138 ± 38 nM, respectively. In addition, in the assay on Kv1.6 channels (ratio of IC50 values), the “fold decrease of Kv1.6 IC50 as compared to rAtPDF2.3” value was determined as 7.1 fold.
As for “recombinant Arabidopsis thaliana plant defensin AtPDF2.3 (from UniProt Q9ZUL7 31-77) (peptide)”, the IC50 of inhibition of Kv1.6 potassium current, two-electrode voltage clamp on X. laevis oocytes, concentration-response curve in assay [1] worked out at 978 nM. In assay [2], the IC50 of inhibition of Kv1.2 potassium current, two-electrode voltage clamp on X. laevis oocytes, concentration-response curve is 1300 nM; the inhibition of the Kv1.2 potassium current by 2 μM rAtPDF2.3 in HK solution was 66%; the inhibition of the Kv1.2 potassium current by 2 μM rAtPDF2.3 in ND96 solution (data not shown) is 59%.
Regarding “AtPDF2.3 [K33A][G36N]: rAtPDF2.3 variant containing only Asparagine36 (CXN toxin signature) (RTCESKSHRFKGPCVSTHNCANVCHNEGFGGGACRNFRRRCYCTRHC; ends and bridges not checked; cysteine pairing not given here)”, the IC50 in the assay with Kv1.2 channels turned out to be 1380 ± 133 nM; with Kv1.6 channels, 366 ± 114 nM.
For the molecule “rAtPDF2.3[K33A]: rAtPDF2.3 variant with neither Lysine33 nor Asparagine36, devoid of the toxin signature (RTCESKSHRFKGPCVSTHNCANVCHNEGFGGGACRGFRRRCYCTRHC; ends and bridges not checked; cysteine pairing not given here)”, the values for the IC50 in the assay with Kv1.2 channels and in the assay on Kv1.6 channels were 2040 ± 383 nM and 3500 ± 235 nM, respectively.
RTCESKSHRFKGPCVSTHNCANVCHNEGFGGGACRGFRRRCYCTRHC (not fully specified; cysteine pairing not given here) [rAtPDF2.3[K33A]] registered an IC50 of inhibition of Kv1.6 potassium current, two-electrode voltage clamp on X. laevis oocytes, concentration-response curve in assay [3] of 3500 nM. This molecule also yielded an IC50 of inhibition of Kv1.2 potassium current, two-electrode voltage clamp on X. laevis oocytes, concentration-response curve in assay [4] of 2040 nM.
Turning to RTCESKSHRFKGPCVSTHNCANVCHNEGFGGGACRNFRRRCYCTRHC (not fully specified; cysteine pairing not given here) [rAtPDF2.3[K33A][G36N]], the IC50 of inhibition of Kv1.6 potassium current, two-electrode voltage clamp on X. laevis oocytes, concentration-response curve in assay [3] worked out at 366 nM. In assay [4], the IC50 of inhibition of Kv1.2 potassium current, two-electrode voltage clamp on X. laevis oocytes, concentration-response curve stood at 1380 nM.
The matching figures for RTCESKSHRFKGPCVSTHNCANVCHNEGFGGGKCRNFRRRCYCTRHC (not fully specified; cysteine pairing not given here) [rAtPDF2.3[G36N]]: 138 nM and 611 nM.

Usually IC50 stands for the point on the concentration scale where inhibition reaches its midpoint.
